B1: TPD52L1 (parent)
chain: ISKKFGDMSYSIRHSISMPAMRNS
B2: TRIM63 (parent)
chain: ANPYWTSRGSSVSMSGGRFRCPTC

Variants of: B1
Assay: protein stability index of a GFP-peptide fusion (GPS, HEK-293T) (PSI 1-6); higher = more stable
Details: c terminus: a fixed tail appended
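Note: lentivirally expressed fusions sorted by FACS into six bins by GFP to DsRed ratio, PSI derived from sequencing read proportions per bin multiplied by bin number.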

Protein stability index of substitutions, site by site:
R22: S 2.13, G 2.66, H 2.56, T 2.6, W 1.65, N 2.79, K 2.75, M 2.25, L 1.82, Q 2.3, V 1.8, I 1.85, P 2.34, Y 1.88
N23: C 1.91, G 2.42, L 1.98, M 2.05, I 1.77, T 2.31, F 1.84, K 2.48, V 1.84, D 2.32, S 2.26, A 1.86, Y 1.51, W 2.39, Q 2.29, P 2.46, H 2.19, E 2.28, R 2.14
S24: D 2.61, T 2.74, G 2.13, E 2.15, M 1.82, R 2.67, I 1.81, A 2.63, L 1.96, F 1.57, W 1.44, V 2.24, H 2.42, C 1.92, P 2.33, N 2.33, Q 1.76, K 2.21, Y 1.77

Variants of: B2
Assay: as above
Details: c terminus: a fixed tail appended

Protein stability index, by site and new letter:
S7: I 3.16, Y 1.54, E 1.28, V 1.93, F 2.07, M 2.53, N 1.37, L 1.6, Q 2.29, A 2.41, D 2.38, T 1.58, H 1.45, P 1.27, W 2.62
R8: F 1.27, D 1.91, E 3.19, G 1.55, A 1.85, C 1.23, H 1.41
P3: G 1.18, Q 2.2, S 1.36, H 2.82, E 1.91, T 2.08, F 2.13, M 1.54, N 1.07, I 2.14, A 2.08, Y 2.38, R 1.84
W5: Y 1.7, D 2.19, Q 2.62, G 2.45, T 1.76, M 2.16, V 2.59, E 2.25, L 1.73, C 1.6, H 2.17, P 2.44, F 1.41, S 1.9, N 2.44, A 1.92
N2: F 1.6, M 1.6, R 2.05, K 1.59, A 2.08, G 1.84, H 2.3, S 1.89, C 2.43, Q 1.23, Y 2.14, L 1.37, P 1.76, E 2.51, I 3.56, T 1.73
Y4: Q 1.69, V 1.56, K 2.09, N 2.34, R 1.47, F 1.57, C 2.92, D 2.51, S 1.65, E 2.1, G 1.36, M 1.75, W 2.18, T 2.17, A 1.33, I 2.8
A1: E 2.31, P 1.28, K 2.1, T 1.88, I 1.53, N 2.18, G 1.66, V 2.21, R 2.08, M 2.07, S 2.69, H 1.88, D 1.67, Q 1.49, L 1.89, F 2.58
T6: K 1.56, W 1.48, A 2.1, G 2.44, E 1.51, N 1.74, S 1.45, Y 1.69, R 2.2, D 1.83, C 1.58, I 1.84, P 1.66, H 2.12, M 2.24, Q 3.06

— the supplement of paper PMC10567573
